# Laboratory results taken from paper PMC8577158, “Phylogenetic analysis and in-depth characterization of functionally and structurally diverse CE5 cutinases” (The Journal of Biological Chemistry, 2021).
# Experiments:
# [1] = target: T1, FsCut (Fusarium vanettenii, UniProt P00590); assay: pNP release at […] nm, nonlinear Michaelis-Menten fit; settings: read-out: FsCut; 50 mM sodium phosphate pH 7, 40 °C
# T1 construct: gene CUT1
# [2] = system: CCCC(=O)Oc1ccc([N+](=O)[O-])cc1; assay: purified protein; settings: 50 mM sodium phosphate pH 7, 40 °C
# [3] = system: CCCCCCCC(=O)Oc1ccc([N+](=O)[O-])cc1; assay: purified protein; settings: 50 mM sodium phosphate pH 7, 40 °C
# [4] = system: CCCCCCCCCCCC(=O)Oc1ccc([N+](=O)[O-])cc1; assay: purified protein; settings: 50 mM sodium phosphate pH 7, 40 °C
# [5] = system: CCCCCCCCCCCCCCCC(=O)Oc1ccc([N+](=O)[O-])cc1; assay: purified protein; settings: 50 mM sodium phosphate pH 7, 40 °C
# [6] = substrate: CCCC(=O)Oc1ccc([N+](=O)[O-])cc1; assay: purified protein; format: biochemical, Cryptococcus sp. S-2; settings: 50 mM sodium phosphate pH 7, 40 °C
# [7] = substrate: CCCCCCCC(=O)Oc1ccc([N+](=O)[O-])cc1; assay: purified protein; format: biochemical, Cryptococcus sp. S-2; settings: 50 mM sodium phosphate pH 7, 40 °C
# [8] = substrate: CCCCCCCCCCCC(=O)Oc1ccc([N+](=O)[O-])cc1; assay: purified protein; format: biochemical, Cryptococcus sp. S-2; settings: 50 mM sodium phosphate pH 7, 40 °C
# [9] = substrate: CCCCCCCCCCCCCCCC(=O)Oc1ccc([N+](=O)[O-])cc1; assay: purified protein; format: biochemical, Cryptococcus sp. S-2; settings: 50 mM sodium phosphate pH 7, 40 °C
# [10] = substrate: CCCC(=O)Oc1ccc([N+](=O)[O-])cc1; assay: purified protein; format: biochemical, Thermothielavioides terrestris; settings: 50 mM sodium phosphate pH 7, 40 °C
# [11] = substrate: CCCCCCCC(=O)Oc1ccc([N+](=O)[O-])cc1; assay: purified protein; format: biochemical, Thermothielavioides terrestris; settings: 50 mM sodium phosphate pH 7, 40 °C
# [12] = substrate: CCCCCCCCCCCC(=O)Oc1ccc([N+](=O)[O-])cc1; assay: purified protein; format: biochemical, Thermothielavioides terrestris; settings: 50 mM sodium phosphate pH 7, 40 °C
# [13] = substrate: CCCCCCCCCCCCCCCC(=O)Oc1ccc([N+](=O)[O-])cc1; assay: purified protein; format: biochemical, Thermothielavioides terrestris; settings: 50 mM sodium phosphate pH 7, 40 °C
# [14] = substrate: CCCC(=O)Oc1ccc([N+](=O)[O-])cc1; assay: purified protein; format: biochemical, Coprinopsis cinerea; settings: 50 mM sodium phosphate pH 7, 40 °C
# [15] = substrate: CCCCCCCC(=O)Oc1ccc([N+](=O)[O-])cc1; assay: purified protein; format: biochemical, Coprinopsis cinerea; settings: 50 mM sodium phosphate pH 7, 40 °C
# [16] = substrate: CCCCCCCCCCCC(=O)Oc1ccc([N+](=O)[O-])cc1; assay: purified protein; format: biochemical, Coprinopsis cinerea; settings: 50 mM sodium phosphate pH 7, 40 °C
# [17] = substrate: CCCCCCCCCCCCCCCC(=O)Oc1ccc([N+](=O)[O-])cc1; assay: purified protein; format: biochemical, Coprinopsis cinerea; settings: 50 mM sodium phosphate pH 7, 40 °C
# T1 sequence (P00590 32-230): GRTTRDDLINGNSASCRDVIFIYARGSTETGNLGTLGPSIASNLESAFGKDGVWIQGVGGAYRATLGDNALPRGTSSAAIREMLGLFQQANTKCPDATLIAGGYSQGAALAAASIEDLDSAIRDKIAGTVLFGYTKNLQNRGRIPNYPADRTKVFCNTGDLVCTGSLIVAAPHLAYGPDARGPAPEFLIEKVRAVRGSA
molecule,measurement,setting,value
CCCC(=O)Oc1ccc([N+](=O)[O-])cc1 [pNP-C4],Km,[1],1670 ± 40 µM
PbCut (Pyrenopeziza brassicae),Km,[2],1710 ± 170 µM
same,kcat,[2],6.45 ± 0.52 s⁻¹
same,kcat/Km,[2],3790 ± 70 M⁻¹ s⁻¹
same,Km,[3],540 ± 70 µM
same,kcat,[3],1.43 ± 0.09 s⁻¹
same,kcat/Km,[3],2650 ± 190 M⁻¹ s⁻¹
same,Km,[4],80 ± 10 µM
same,kcat,[4],0.2 s⁻¹
same,kcat/Km,[4],2500 ± 180 M⁻¹ s⁻¹
same,Km,[5],40 ± 10 µM
same,kcat,[5],0.08 s⁻¹
same,kcat/Km,[5],2070 ± 250 M⁻¹ s⁻¹
FsCut (Fusarium vanettenii),Km,[3],720 ± 10 µM
same,kcat,[3],6.69 ± 0.24 s⁻¹
same,kcat/Km,[3],9250 ± 260 M⁻¹ s⁻¹
same,Km,[4],50 ± 10 µM
same,kcat,[4],1.22 ± 0.03 s⁻¹
same,kcat/Km,[4],22800 ± 2090 M⁻¹ s⁻¹
same,Km,[5],10 ± 0 µM
same,kcat,[5],0.15 s⁻¹
same,kcat/Km,[5],10600 ± 1060 M⁻¹ s⁻¹
CspCut (Cryptococcus sp. S-2) (protein) ATSSACPQYVLINTRGTGEPQGQSAGFRTMNSQITAALSGGTIYNTVYTADFSQNSAAGTADIIRRINSGLAANPNVCYILQGYSQGAAATVVALQQLGTSGAAFNAVKGVFLIGNPDHKSGLTCNVDSNGGTTTRNVNGLSVAYQGSVPSGWVSKTLDVCAYGDGVCDTAHGFGINAQHLSYPSDQGVQTMGYKFAVNKLGGSA,Km,[6],5540 ± 500 µM
same,kcat,[6],13.5 ± 0.25 s⁻¹
same,kcat/Km,[6],2510 ± 270 M⁻¹ s⁻¹
same,Km,[7],50 ± 0 µM
same,kcat,[7],3.81 ± 0.27 s⁻¹
same,kcat/Km,[7],83200 ± 4200 M⁻¹ s⁻¹
same,Km,[8],50 ± 0 µM
same,kcat,[8],3.49 ± 0.06 s⁻¹
same,kcat/Km,[8],65970 ± 600 M⁻¹ s⁻¹
same,Km,[9],50 ± 0 µM
same,kcat,[9],3.38 ± 0.12 s⁻¹
same,kcat/Km,[9],70700 ± 6470 M⁻¹ s⁻¹
TtCut (Thermothielavioides terrestris NRRL 8126) (protein) APTQPAGEAAVEARQLFSDTANDLENGVSSNCPKVIFICARGSTETGNLGSSVCPEVANGLKNYYPNQLWVQGVGGAYTADLASNALPGGTSTAAMQEAANMFNLAQQKCPNASVAAGGYSQGTAVVAGGIQSLSAAAKDQIKGVVLFGYTQAQQNHDTIPNFPVDKTMIFCAQGDLVCNGTLIVTAAHFSYITNGDASTKGPAWLHEKIGDA,Km,[10],7080 ± 90 µM
same,Km,[11],390 ± 10 µM
same,kcat,[11],2.3 ± 0.06 s⁻¹
same,kcat/Km,[11],5810 ± 50 M⁻¹ s⁻¹
same,Km,[12],210 ± 0 µM
same,Km,[13],500 ± 90 µM
CcCut (Coprinopsis cinerea) (protein) QLFCRDVYVFFARGTGEVGTLGTVVGPGLSAAVKLAVRDSVEFEGIDYPALVSGYLAGGDRGGARTMANKVSQTASRCPNAKIFISGYSQGAQVTHLAARQLSAADQARVTGVVTFGDPYRDDALPGGLQSRRKTYCNVGDLICAGLPTLLAPHFTYGSDTPDAARWIAARV,Km,[14],3560 ± 150 µM
same,kcat,[14],8.96 ± 0.39 s⁻¹
same,kcat/Km,[14],2520 M⁻¹ s⁻¹
same,Km,[15],1670 ± 180 µM
same,Km,[16],2760 ± 50 µM
same,Km,[17],2900 ± 200 µM
